Our source for the EC50 of the loss of synaptophysin (ELISA) in mouse cortical neurons incubated 24 hours with αSN premixed with Aβ1-42 (1:50); αSN alone 500 nM values is PMC3017026.

For the test, the target named is recombinant human α-synuclein (human) (UniProt P37840).

With amyloid-β 1-42 synthetic peptide, the EC50 of the loss of synaptophysin (ELISA) in mouse cortical neurons incubated 24 hours with αSN premixed with Aβ1-42 (1:50); αSN alone 500 nM is 25 nM.
